# In patent US20230312724A1 (KADMON, published 2023):
# Read-outs that look alike come from different tables or passages of the source.
# T1: human B7-H4-his (human, UniProt Q7Z7D3 25-259)
# T1 construct: also called hB7-H4-his; hB7-H4 his; not shown: his tag
# T1 sequence: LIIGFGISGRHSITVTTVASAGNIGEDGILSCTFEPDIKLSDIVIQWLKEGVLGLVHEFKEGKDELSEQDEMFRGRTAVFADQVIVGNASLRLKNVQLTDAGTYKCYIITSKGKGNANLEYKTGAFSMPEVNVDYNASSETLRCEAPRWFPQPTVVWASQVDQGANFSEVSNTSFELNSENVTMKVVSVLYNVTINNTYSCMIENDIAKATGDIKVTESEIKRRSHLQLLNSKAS
# T2: human B7-H4 expressed on cells (human, UniProt Q7Z7D3 25-282)
# T2 construct: Transfected CHO cells or tumor cell lines that carry hB7-H4; also called cellular hB7-H4
# T2 sequence: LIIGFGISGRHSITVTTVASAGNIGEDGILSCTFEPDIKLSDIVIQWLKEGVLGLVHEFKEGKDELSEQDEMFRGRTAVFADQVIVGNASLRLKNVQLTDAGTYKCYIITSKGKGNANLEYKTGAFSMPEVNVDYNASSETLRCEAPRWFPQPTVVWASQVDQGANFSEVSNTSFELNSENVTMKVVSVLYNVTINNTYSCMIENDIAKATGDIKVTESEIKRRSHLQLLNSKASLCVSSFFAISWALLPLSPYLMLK
# T3: mouse B7-H4 expressed on cells (mouse, UniProt Q7TSP5 25-257)
# T3 construct: also called cellular mB7-H4; mB7-H4/CT26
# T3 sequence: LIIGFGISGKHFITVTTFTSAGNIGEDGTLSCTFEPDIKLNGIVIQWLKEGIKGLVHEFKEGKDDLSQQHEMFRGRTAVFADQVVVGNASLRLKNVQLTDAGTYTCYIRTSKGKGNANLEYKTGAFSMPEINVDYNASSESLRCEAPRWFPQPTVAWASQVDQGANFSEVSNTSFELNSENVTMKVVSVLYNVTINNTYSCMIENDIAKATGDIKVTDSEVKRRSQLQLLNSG
# T4: mB7-H4 (soluble mouse B7-H4, construct not named) (mouse, UniProt Q7TSP5 25-257, limits assumed)
# T4 sequence: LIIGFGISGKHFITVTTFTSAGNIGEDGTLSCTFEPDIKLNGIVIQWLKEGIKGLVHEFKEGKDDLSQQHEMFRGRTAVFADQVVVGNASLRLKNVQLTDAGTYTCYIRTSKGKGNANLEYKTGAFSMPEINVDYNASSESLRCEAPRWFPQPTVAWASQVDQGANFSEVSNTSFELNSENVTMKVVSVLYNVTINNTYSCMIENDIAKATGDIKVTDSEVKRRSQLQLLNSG
# Experiments:
# [1] = molecular target: T5, IgV domain of human B7-H4-Fc (human); experiment: ELISA, coated hB7-H4 IgV domain
# T5 construct: also called hB7-H4 IgV domain
# T5 sequence (chain, as listed by the source): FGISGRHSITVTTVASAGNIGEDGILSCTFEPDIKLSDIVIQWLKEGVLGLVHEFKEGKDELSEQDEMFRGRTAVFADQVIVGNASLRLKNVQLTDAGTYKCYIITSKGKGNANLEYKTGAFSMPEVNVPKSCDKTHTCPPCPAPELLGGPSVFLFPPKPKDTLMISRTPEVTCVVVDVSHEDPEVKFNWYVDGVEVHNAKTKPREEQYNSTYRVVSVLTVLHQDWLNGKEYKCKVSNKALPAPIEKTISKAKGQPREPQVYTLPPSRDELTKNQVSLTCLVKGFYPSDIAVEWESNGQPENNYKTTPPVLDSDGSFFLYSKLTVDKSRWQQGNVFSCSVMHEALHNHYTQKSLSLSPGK
# Procedure: ELISA experiments were performed to determine binding to hB7-H4-Fc (FIG. 5A), hB7-H4-his (FIG. 5B), mB7-H4-Fc domain (FIG. 5C), hB7-H4 IgV domain (FIG. 5D), and hB7-H4 IgC domain (FIG. 5E). Flow cytrometry experiments were performed to determine binding to CHO cells expressing hB7-H4 (FIG. 5F) or mB7-H4 (FIG. 5G). […] A cross-reactive IgV binding antibody and an IgC binding antibody were used as controls.
# (§1) About 1-2 μg/ml of human or mouse B7-H4-Fc (or his-tagged) was immobilized on ELISA plates (Immuno 2HB, Thermo scientific, cat #3455) at 4° C. overnight. After blocking the plates with 3% PBS+milk, serial diluted antibodies were added to the blocked plates and incubated at RT for 1-1.5 h. After washing the plates with PBS-T (0.05%), horse radish peroxidase (HRP)-conjugated antibody targeting the hFab was added to the plate. Signals were developed by adding 3,3′,5,5′-Tetramethylbenzidine (TMB (followed 1N of H₂SO₄ to stop the reaction. The OD at 450 nm was read by ELISA plate reader (Infinite M1000 from TECAN). GraphPad from Prism was used to plot OD450 vs. antibody concentration curve and to calculate the EC50 values.
# [2] = molecular target: T5, IgV domain of human B7-H4-Fc; experiment: ELISA, coated hB7-H4 IgV domain; remark: listed apart in the source
# Procedure: as §1
# [3] = molecular target: T6, IgC domain of mouse B7-H4-Fc (mouse; human); experiment: ELISA, coated mB7-H4 IgC domain
# T6 construct: also called mB7-H4 IgC domain
# T6 sequence (chain, as listed by the source): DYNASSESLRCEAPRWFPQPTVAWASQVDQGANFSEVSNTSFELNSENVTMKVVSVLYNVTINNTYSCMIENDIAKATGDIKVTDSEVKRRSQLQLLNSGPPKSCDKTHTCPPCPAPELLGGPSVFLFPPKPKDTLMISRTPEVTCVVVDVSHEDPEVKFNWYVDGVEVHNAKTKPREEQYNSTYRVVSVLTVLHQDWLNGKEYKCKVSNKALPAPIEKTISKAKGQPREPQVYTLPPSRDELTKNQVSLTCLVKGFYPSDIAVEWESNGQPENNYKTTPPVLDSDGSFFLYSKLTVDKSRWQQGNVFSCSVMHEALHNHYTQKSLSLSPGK
# [4] = molecular target: T1, human B7-H4-his; experiment: ELISA, coated hB7-H4-his
# Procedure: as §1
# [5] = molecular target: T7, mouse B7-H4-Fc (mouse; human); experiment: SPR (Biacore)
# T7 construct: also called mB7-H4-Fc; mB7-H4-hFc
# T7 sequence (chain, as listed by the source): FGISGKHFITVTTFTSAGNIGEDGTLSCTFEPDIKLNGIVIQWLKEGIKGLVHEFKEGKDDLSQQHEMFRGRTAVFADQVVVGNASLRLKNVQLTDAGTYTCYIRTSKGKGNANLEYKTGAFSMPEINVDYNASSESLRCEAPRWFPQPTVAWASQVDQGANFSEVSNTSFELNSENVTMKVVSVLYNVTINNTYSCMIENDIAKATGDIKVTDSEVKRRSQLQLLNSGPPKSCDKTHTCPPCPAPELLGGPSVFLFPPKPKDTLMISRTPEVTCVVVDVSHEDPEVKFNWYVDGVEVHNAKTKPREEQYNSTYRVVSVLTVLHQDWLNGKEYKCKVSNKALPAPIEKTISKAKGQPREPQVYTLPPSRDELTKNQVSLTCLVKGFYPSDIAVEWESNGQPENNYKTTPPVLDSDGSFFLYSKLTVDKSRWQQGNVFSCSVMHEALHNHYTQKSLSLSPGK
# Summary of the method: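 Kinetic constants came from a 1:1 Langmuir fit of binding at 25 °C in HBS-EP, pH 7.4. Analyte (100 nM to 0.1 nM) flowed for 180 s, then dissociated for 1000 or 1200 s, over amine-coupled human B7-H4-Fc, human B7-H4-his or mouse B7-H4-Fc surfaces at 50-100 RU.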
# [6] = molecular target: T8, IgV domain of mouse B7-H4-Fc (mouse; human); experiment: ELISA on coated IgV domain of mB7-H4
# T8 construct: also called mB7-H4 IgV domain
# T8 sequence (chain, as listed by the source): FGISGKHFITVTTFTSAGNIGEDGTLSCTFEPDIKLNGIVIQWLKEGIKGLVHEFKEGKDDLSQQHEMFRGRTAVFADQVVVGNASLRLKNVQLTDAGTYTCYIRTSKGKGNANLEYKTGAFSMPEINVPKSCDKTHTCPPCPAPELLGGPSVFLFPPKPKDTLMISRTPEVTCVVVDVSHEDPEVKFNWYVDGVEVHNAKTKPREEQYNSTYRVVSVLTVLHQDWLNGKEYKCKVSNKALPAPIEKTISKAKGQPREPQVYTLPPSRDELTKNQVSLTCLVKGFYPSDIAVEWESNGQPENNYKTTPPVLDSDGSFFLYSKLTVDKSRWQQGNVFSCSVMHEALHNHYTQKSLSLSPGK
# Procedure: as §1
# [7] = molecular target: T2, human B7-H4 expressed on cells; experiment: flow cytometry, SK-BR-3 cells
# Summary of the method: (§2)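 Cell-surface binding read by flow cytometry: cells (1×10⁶/ml, cold FACS buffer) + serial dilutions of antibody or fusion protein, 1 h, 4 °C; 3 washes; secondary Ab 1:200, 30 min, 4 °C, dark.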
# [8] = molecular target: T3, mouse B7-H4 expressed on cells; experiment: flow cytometry, mB7-H4/CT26 cells
# Summary of the method: as §2
# [9] = molecular target: T2, human B7-H4 expressed on cells; experiment: flow cytometry, MDA-MB-468 cells
# Procedure: (§3) Cells were harvested, washed once, and then re-suspended to the concentration of 1×10⁶ cells/ml in ice cold FACS Buffer. 25 μl of cell suspension was added to each well of a 96-well round-bottom microliter plate. Serially diluted antibodies or fusion proteins were added to each well and incubated for 1 hour at 4° C. Cells were washed three times by centrifugation at 1500 rpm for 5 minutes, and then stained with secondary antibody (1:200 dilution) for 30 min at 4° C. in the dark. Cells were washed once, re-suspended in 100 μl PBS buffer and then analyzed using Guava Flow Cytometry EasyCyte system.
# [10] = molecular target: T4, mB7-H4 (soluble mouse B7-H4, construct …); experiment: ELISA, mB7-H4
# Summary of the method: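 Direct binding ELISA: immobilized B7-H4-Fc or his-tagged antigen (~1-2 μg/ml, overnight, 4° C), antibody dilution series 1-1.5 h at RT. Readout OD450 after HRP anti-hFab and TMB; EC50 calculated.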
# [11] = molecular target: T2, human B7-H4 expressed on cells; experiment: flow cytometry, MX-1 cells
# Procedure: as §3
EC50 (read off the curve) [1] [nM],EC50 (read off the curve) [2] [nM],binding result [3],EC50 (read off the curve) [4] [nM],Kd [5] [nM],EC50 (read off the curve) [6] [nM],EC50 [7] [nM],EC50 [8] [nM],EC50 [9] [nM],EC50 [10] [nM],EC50 [11] [nM],Binder
~0.2,~0.2,no binding (tested: log 1 nM (10 nM)),~0.2,0.509,~0.2,,,,,,"Control antibody 1 (antibody 20502 described in US20190085080A1) (antibody, V domains shown, also called (+) control Ab1; (+) Ab1) VH: QLQLQESGPGLVKPSETLSLTCTVSGGSIKSGSYYWGWIRQPPGKGLEWIGNIYYSGSTYYNPSLRSRVTISVDTSKNQFSLKLSSVTAADTAVYYCAREGSYPNQFDPWGQGTLVTVSS VL: EIVMTQSPATLSVSPGERATLSCRASQSVSSNLAWYQQKPGQAPRLLIYGASTRATGIPARFSGSGSGTEFTLTISSLQSEDFAVYYCQQYHSFPFTFGGGTKVEIK"
,,no binding (tested: log 1 nM (10 nM)),,0.0518,,1.9,1.22,13.1,0.096,8.87,"39A11/57G8 (antibody, human IgG1, V domains shown, 39A11 VH with 57G8 VL) VH: EVQLLESGGGLVQPGGSLRLSCAASGFTFSSYGMHWVRQAPGKGLEWVASISSSSGYIYYADSVKGRFTISRDNSKNTLYLQMNSLRAEDTAVYYCARASSGMDVWGQGTTVTVSS VL: DIQMTQSPSSLSASVGDRVTITCRASQSIRSYLNWYQQKPGKAPKLLIYYASSLQSGVPSRFSGSGSGTDFTLTISSLQPEDFATYYCQQYYSTPLTFGQGTKVEIK"
